{
  "source": "patent US20030165991A1",
  "key": {"[1]": {"target": "Monoclonal antibody mAB 6F5 (anti-deoxynivalenol monoclonal antibody from hybridoma cell line 6F5)", "assay": "CD-ELISA, immobilized mAB 6F5; C430 competing with DON-HRP or C430-HRP conjugate"}, "[2]": {"target": "antiserum from C430-BSA-immunized mice", "assay": "CI-ELISA, immobilized phage-displayed DONPEP.2, antiserum after the fourth injection, free C430 as competitor"}},
  "data": [
    {"binder": "H-SWGPFPFGGGSC-OH", "note": "[synthetic peptide C430 (NH2-…-COOH)]", "values": [
      {"measurement": "IC50", "setting": "[1]", "result": "640 to 800", "unit": "nM"},
      {"measurement": "IC50", "setting": "[2]", "result": 390, "unit": "nM"}
    ]}
  ]
}
